# From US20240270846A1 (published 2024)
# Target: T1, CD3 epsilon homodimer protein (UniProt P07766 23-126)
# T1 construct: Construct of the homodimer is not described; also called CD3 (CD3 epsilon)
# Test: SPR Biacore T200, CD3e homodimer on chip, antibody analyte;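 further: CD3 epsilon homodimer amine-coupled on CM4 sensor chip, antibodies injected as analyte at 25 °C in HBS-EP+, ratio ≥0.8 taken as binding retained versus unaltered parent antibody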
# T1 sequence (P07766 23-126): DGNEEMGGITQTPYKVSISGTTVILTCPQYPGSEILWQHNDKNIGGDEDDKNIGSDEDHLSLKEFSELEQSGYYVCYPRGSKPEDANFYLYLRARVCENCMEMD
row,Binder,ratio of amounts bound (altered form/GLS3000)
1,"GLS3000 N53M one-arm antibody (antibody, human IgG1, kappa, L234A L235A, N297A, name in Kabat numbering) light: DIVMTQSPLSLPVTPGEPASISCRSSQSLVHSNRNTYLHWYQQKPGQAPRLLIYKVSMRFSGVPDRFSGSGSGTDFTLKISRVEAEDVGVYYCGQGTQVPYTFGQGTKLEIKRTVAAPSVFIFPPSDEQLKSGTASVVCLLNNFYPREAKVQWKVDNALQSGNSQESVTEQDSKDSTYSLSSTLTLSKADYEKHKVYACEVTHQGLSSPVTKSFNRGEC heavy: QVQLVESGGGVVQPGRSLRLSCAASGFTFSNAWMHWVRQAPGKGLEWVAQIKAKSNNYATYYAESVKGRFTISRDDSKNSLYLQMNSLKTEDTAVYYCRYVHYGAYYGVDAWGQGTTVTVSSASTKGPSVFPLAPSSKSTSGGTAALGCLVKDYFPEPVTVSWNSGALTSGVHTFPAVLQSSGLYSLSSVVTVPSSSLGTQTYICNVNHKPSNTKVDKKVEPKSCDKTHTCPPCPAPEAAGGPSVFLFPPKPKDTLMISRTPEVTCVVVDVSHEDPEVKFNWYVDGVEVHNAKTKPREEQYASTYRVVSVLTVLHQDWLNGKEYKCKVSNKALPAPIEKTISKAKGQPREPQVYTLPPSRCELTKNQVSLSCAVKGFYPSDIAVEWESNGQPENNYKTTPPVLDSDGSFFLVSKLTVDKSRWQQGNVFSCSVMHEALHNHYTQKSLSLSPDYKDDDDK EPKSSDKTHTCPPCPAPELLGGPSVFLFPPKPKDTLMISRTPEVTCVVVDVSHEDPEVKFNWYVDGVEVHNAKTKPREEQYNSTYRVVSVLTVLHQDWLNGKEYKCKVSNKALPAPIEKTISKAKGQPREPQVCTLPPSRDELTKNQVSLWCLVKGFYPSDIAVEWESNGQPENNYKTTPPVLDSDGSFFLYSKLTVDKSRWQQGNVFSCSVMHEALHNRYTQKSLSLSP",0.62
2,"GLS3000 N53K one-arm antibody (antibody, human IgG1, kappa, L234A L235A, N297A, name in Kabat numbering) light: DIVMTQSPLSLPVTPGEPASISCRSSQSLVHSNRNTYLHWYQQKPGQAPRLLIYKVSKRFSGVPDRFSGSGSGTDFTLKISRVEAEDVGVYYCGQGTQVPYTFGQGTKLEIKRTVAAPSVFIFPPSDEQLKSGTASVVCLLNNFYPREAKVQWKVDNALQSGNSQESVTEQDSKDSTYSLSSTLTLSKADYEKHKVYACEVTHQGLSSPVTKSFNRGEC heavy: QVQLVESGGGVVQPGRSLRLSCAASGFTFSNAWMHWVRQAPGKGLEWVAQIKAKSNNYATYYAESVKGRFTISRDDSKNSLYLQMNSLKTEDTAVYYCRYVHYGAYYGVDAWGQGTTVTVSSASTKGPSVFPLAPSSKSTSGGTAALGCLVKDYFPEPVTVSWNSGALTSGVHTFPAVLQSSGLYSLSSVVTVPSSSLGTQTYICNVNHKPSNTKVDKKVEPKSCDKTHTCPPCPAPEAAGGPSVFLFPPKPKDTLMISRTPEVTCVVVDVSHEDPEVKFNWYVDGVEVHNAKTKPREEQYASTYRVVSVLTVLHQDWLNGKEYKCKVSNKALPAPIEKTISKAKGQPREPQVYTLPPSRCELTKNQVSLSCAVKGFYPSDIAVEWESNGQPENNYKTTPPVLDSDGSFFLVSKLTVDKSRWQQGNVFSCSVMHEALHNHYTQKSLSLSPDYKDDDDK EPKSSDKTHTCPPCPAPELLGGPSVFLFPPKPKDTLMISRTPEVTCVVVDVSHEDPEVKFNWYVDGVEVHNAKTKPREEQYNSTYRVVSVLTVLHQDWLNGKEYKCKVSNKALPAPIEKTISKAKGQPREPQVCTLPPSRDELTKNQVSLWCLVKGFYPSDIAVEWESNGQPENNYKTTPPVLDSDGSFFLYSKLTVDKSRWQQGNVFSCSVMHEALHNRYTQKSLSLSP",1.08
3,"GLS3000 N53Q one-arm antibody (antibody, human IgG1, kappa, L234A L235A, N297A, name in Kabat numbering) light: DIVMTQSPLSLPVTPGEPASISCRSSQSLVHSNRNTYLHWYQQKPGQAPRLLIYKVSQRFSGVPDRFSGSGSGTDFTLKISRVEAEDVGVYYCGQGTQVPYTFGQGTKLEIKRTVAAPSVFIFPPSDEQLKSGTASVVCLLNNFYPREAKVQWKVDNALQSGNSQESVTEQDSKDSTYSLSSTLTLSKADYEKHKVYACEVTHQGLSSPVTKSFNRGEC heavy: QVQLVESGGGVVQPGRSLRLSCAASGFTFSNAWMHWVRQAPGKGLEWVAQIKAKSNNYATYYAESVKGRFTISRDDSKNSLYLQMNSLKTEDTAVYYCRYVHYGAYYGVDAWGQGTTVTVSSASTKGPSVFPLAPSSKSTSGGTAALGCLVKDYFPEPVTVSWNSGALTSGVHTFPAVLQSSGLYSLSSVVTVPSSSLGTQTYICNVNHKPSNTKVDKKVEPKSCDKTHTCPPCPAPEAAGGPSVFLFPPKPKDTLMISRTPEVTCVVVDVSHEDPEVKFNWYVDGVEVHNAKTKPREEQYASTYRVVSVLTVLHQDWLNGKEYKCKVSNKALPAPIEKTISKAKGQPREPQVYTLPPSRCELTKNQVSLSCAVKGFYPSDIAVEWESNGQPENNYKTTPPVLDSDGSFFLVSKLTVDKSRWQQGNVFSCSVMHEALHNHYTQKSLSLSPDYKDDDDK EPKSSDKTHTCPPCPAPELLGGPSVFLFPPKPKDTLMISRTPEVTCVVVDVSHEDPEVKFNWYVDGVEVHNAKTKPREEQYNSTYRVVSVLTVLHQDWLNGKEYKCKVSNKALPAPIEKTISKAKGQPREPQVCTLPPSRDELTKNQVSLWCLVKGFYPSDIAVEWESNGQPENNYKTTPPVLDSDGSFFLYSKLTVDKSRWQQGNVFSCSVMHEALHNRYTQKSLSLSP",0.77
4,"GLS3000 N53L one-arm antibody (antibody, human IgG1, kappa, L234A L235A, N297A, name in Kabat numbering) light: DIVMTQSPLSLPVTPGEPASISCRSSQSLVHSNRNTYLHWYQQKPGQAPRLLIYKVSLRFSGVPDRFSGSGSGTDFTLKISRVEAEDVGVYYCGQGTQVPYTFGQGTKLEIKRTVAAPSVFIFPPSDEQLKSGTASVVCLLNNFYPREAKVQWKVDNALQSGNSQESVTEQDSKDSTYSLSSTLTLSKADYEKHKVYACEVTHQGLSSPVTKSFNRGEC heavy: QVQLVESGGGVVQPGRSLRLSCAASGFTFSNAWMHWVRQAPGKGLEWVAQIKAKSNNYATYYAESVKGRFTISRDDSKNSLYLQMNSLKTEDTAVYYCRYVHYGAYYGVDAWGQGTTVTVSSASTKGPSVFPLAPSSKSTSGGTAALGCLVKDYFPEPVTVSWNSGALTSGVHTFPAVLQSSGLYSLSSVVTVPSSSLGTQTYICNVNHKPSNTKVDKKVEPKSCDKTHTCPPCPAPEAAGGPSVFLFPPKPKDTLMISRTPEVTCVVVDVSHEDPEVKFNWYVDGVEVHNAKTKPREEQYASTYRVVSVLTVLHQDWLNGKEYKCKVSNKALPAPIEKTISKAKGQPREPQVYTLPPSRCELTKNQVSLSCAVKGFYPSDIAVEWESNGQPENNYKTTPPVLDSDGSFFLVSKLTVDKSRWQQGNVFSCSVMHEALHNHYTQKSLSLSPDYKDDDDK EPKSSDKTHTCPPCPAPELLGGPSVFLFPPKPKDTLMISRTPEVTCVVVDVSHEDPEVKFNWYVDGVEVHNAKTKPREEQYNSTYRVVSVLTVLHQDWLNGKEYKCKVSNKALPAPIEKTISKAKGQPREPQVCTLPPSRDELTKNQVSLWCLVKGFYPSDIAVEWESNGQPENNYKTTPPVLDSDGSFFLYSKLTVDKSRWQQGNVFSCSVMHEALHNRYTQKSLSLSP",0.56

# Next, values leading:
row,ratio of amounts bound (altered form/GLS3000),Binder
1,0.5,"GLS3000 N53I one-arm antibody (antibody, human IgG1, kappa, L234A L235A, N297A, name in Kabat numbering) light: DIVMTQSPLSLPVTPGEPASISCRSSQSLVHSNRNTYLHWYQQKPGQAPRLLIYKVSIRFSGVPDRFSGSGSGTDFTLKISRVEAEDVGVYYCGQGTQVPYTFGQGTKLEIKRTVAAPSVFIFPPSDEQLKSGTASVVCLLNNFYPREAKVQWKVDNALQSGNSQESVTEQDSKDSTYSLSSTLTLSKADYEKHKVYACEVTHQGLSSPVTKSFNRGEC heavy: QVQLVESGGGVVQPGRSLRLSCAASGFTFSNAWMHWVRQAPGKGLEWVAQIKAKSNNYATYYAESVKGRFTISRDDSKNSLYLQMNSLKTEDTAVYYCRYVHYGAYYGVDAWGQGTTVTVSSASTKGPSVFPLAPSSKSTSGGTAALGCLVKDYFPEPVTVSWNSGALTSGVHTFPAVLQSSGLYSLSSVVTVPSSSLGTQTYICNVNHKPSNTKVDKKVEPKSCDKTHTCPPCPAPEAAGGPSVFLFPPKPKDTLMISRTPEVTCVVVDVSHEDPEVKFNWYVDGVEVHNAKTKPREEQYASTYRVVSVLTVLHQDWLNGKEYKCKVSNKALPAPIEKTISKAKGQPREPQVYTLPPSRCELTKNQVSLSCAVKGFYPSDIAVEWESNGQPENNYKTTPPVLDSDGSFFLVSKLTVDKSRWQQGNVFSCSVMHEALHNHYTQKSLSLSPDYKDDDDK EPKSSDKTHTCPPCPAPELLGGPSVFLFPPKPKDTLMISRTPEVTCVVVDVSHEDPEVKFNWYVDGVEVHNAKTKPREEQYNSTYRVVSVLTVLHQDWLNGKEYKCKVSNKALPAPIEKTISKAKGQPREPQVCTLPPSRDELTKNQVSLWCLVKGFYPSDIAVEWESNGQPENNYKTTPPVLDSDGSFFLYSKLTVDKSRWQQGNVFSCSVMHEALHNRYTQKSLSLSP"
2,0.81,"GLS3000 N53P one-arm antibody (antibody, human IgG1, kappa, L234A L235A, N297A, name in Kabat numbering) light: DIVMTQSPLSLPVTPGEPASISCRSSQSLVHSNRNTYLHWYQQKPGQAPRLLIYKVSPRFSGVPDRFSGSGSGTDFTLKISRVEAEDVGVYYCGQGTQVPYTFGQGTKLEIKRTVAAPSVFIFPPSDEQLKSGTASVVCLLNNFYPREAKVQWKVDNALQSGNSQESVTEQDSKDSTYSLSSTLTLSKADYEKHKVYACEVTHQGLSSPVTKSFNRGEC heavy: QVQLVESGGGVVQPGRSLRLSCAASGFTFSNAWMHWVRQAPGKGLEWVAQIKAKSNNYATYYAESVKGRFTISRDDSKNSLYLQMNSLKTEDTAVYYCRYVHYGAYYGVDAWGQGTTVTVSSASTKGPSVFPLAPSSKSTSGGTAALGCLVKDYFPEPVTVSWNSGALTSGVHTFPAVLQSSGLYSLSSVVTVPSSSLGTQTYICNVNHKPSNTKVDKKVEPKSCDKTHTCPPCPAPEAAGGPSVFLFPPKPKDTLMISRTPEVTCVVVDVSHEDPEVKFNWYVDGVEVHNAKTKPREEQYASTYRVVSVLTVLHQDWLNGKEYKCKVSNKALPAPIEKTISKAKGQPREPQVYTLPPSRCELTKNQVSLSCAVKGFYPSDIAVEWESNGQPENNYKTTPPVLDSDGSFFLVSKLTVDKSRWQQGNVFSCSVMHEALHNHYTQKSLSLSPDYKDDDDK EPKSSDKTHTCPPCPAPELLGGPSVFLFPPKPKDTLMISRTPEVTCVVVDVSHEDPEVKFNWYVDGVEVHNAKTKPREEQYNSTYRVVSVLTVLHQDWLNGKEYKCKVSNKALPAPIEKTISKAKGQPREPQVCTLPPSRDELTKNQVSLWCLVKGFYPSDIAVEWESNGQPENNYKTTPPVLDSDGSFFLYSKLTVDKSRWQQGNVFSCSVMHEALHNRYTQKSLSLSP"
